The values that follow come from patent US20200157194A1 (Regeneron, published 2020).

Experiment [1] concerns the target T1, human GREM1 (hGREM1-His; SEQ ID NO: 595) (human, UniProt O60565 25-184).
T1 construct: also called biotin-hGREM1-His; recombinant human GREM1 protein
T1 sequence: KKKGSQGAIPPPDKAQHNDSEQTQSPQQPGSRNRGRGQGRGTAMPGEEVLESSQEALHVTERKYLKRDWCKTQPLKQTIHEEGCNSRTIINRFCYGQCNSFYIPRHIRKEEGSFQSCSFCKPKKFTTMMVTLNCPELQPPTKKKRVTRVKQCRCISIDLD
The experiment can be described thus: SPR, Biacore T200, 25 C, mAb captured, hGREM1-His injected.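 Also: Heparin-supplemented HBS-EP+ used as running buffer, association and dissociation phases followed, Kd computed as koff divided by kon and half-life derived from koff.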 In general terms: SPR reads the build-up and loss of mass on a sensor chip optically.

Experiment [2] concerns the target T1, human GREM1 (hGREM1-His; SEQ ID NO: 595). Description: SPR, Biacore T200, 37 C, mAb captured, hGREM1-His injected.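 Also: HBS-EP running buffer containing heparin, association and dissociation phases tracked, KD computed as koff over kon and half-life derived from koff.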
In experiment [3] the target is T2, recombinant human GREM1 (hGREM1-His; C-terminal 10His tagged, R&D, #5190-GR) (human, UniProt O60565 25-184, limits assumed).
T2 sequence: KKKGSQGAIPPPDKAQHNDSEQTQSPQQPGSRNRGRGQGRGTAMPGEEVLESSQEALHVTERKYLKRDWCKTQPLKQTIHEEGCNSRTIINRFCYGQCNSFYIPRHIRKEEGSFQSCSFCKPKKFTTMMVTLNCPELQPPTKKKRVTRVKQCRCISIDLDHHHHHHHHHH
Description: cell-based or functional assay.

The target in experiment [4] is T2, recombinant human GREM1 (hGREM1-His; …). The experiment can be described thus: BLI Octet, mAb captured, 100 nM GREM1 + 5 uM heparin.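 Also: octet Red96 biolayer interferometry at 25 °C, antibodies captured on anti-human IgG Fc biosensors, pH 7.4 HEPES buffer with 0.1 mg/mL BSA.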 Background: Biolayer interferometry detects binding as a change in optical thickness at a sensor tip.
The target of experiment [5] is T1, human GREM1 (hGREM1-His; SEQ ID NO: 595). Description: competition ELISA, biotin-hGREM1-His (100 pM) binding to coated hBMP4. For orientation: ELISA stands for enzyme-linked immunosorbent assay.
The target in experiment [6] is T2, recombinant human GREM1 (hGREM1-His; …). Description: BLI Octet, mAb captured, 100 nM GREM1 without vs with 5 uM heparin.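 Also: octet Red96 biolayer interferometry at 25 °C, antibodies captured on anti-human IgG Fc biosensors, association of GREM1 measured with versus without heparin in HEPES-buffered saline, pH 7.4.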
Experiment [7] shares this target. The experiment can be described thus: cell-based or functional assay. This is another data set of the same source.
The target is the same in experiment [8]. The experiment can be described thus: BLI Octet, mAb captured, 100 nM GREM1.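 Also: octet Red96 biolayer interferometry at 25 °C in pH 7.4 HEPES saline buffer, antibodies held on anti-human IgG Fc capture biosensors, then exposed to GREM1.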

Substitutions are numbered along the chain they refer to.

B1: H2bM2783N (antibody, mouse IgG2, V domains shown)
VH: EVQLLESGGGLVQPGGSLRLSCAASGFTFSSYVMNWVRQAPGKGLEWVSAISGSGGSTYYADSVKGRSTISRDNSKNTLYLQMNSLRAEDTAIYYCAKGDIAAIVFDAFDIWGQGTVVTVSS
VL: DIQMTQSPSSLSASVGDRVTITCQASQDISSCLNWYQHKPGKAPKLLIYDASYLETGVPSRFSGSGSGTDFTFTISSLQPEDIATYYCQQYDNLPYTFGQGTKLEIK
notes: H2M prefix = mouse IgG2 Fc (here H2bM); also called H2M2783N
In general, Kd refers to the constant that tells how readily two partners part at equilibrium. Higher therefore signals lower affinity. One may read the koff as a measure of how fast the partners let go of each other. The low end stands for slow dissociation, the high end for fast dissociation. The kon is a measure of how fast the partners come together. In experiment [1], B1 returned a Kd of 7.4 nM, a koff of 0.0015 s⁻¹, a kon of 202000 M⁻¹ s⁻¹ and a t1/2 of 7.7 min.

B2: H4H2783N2 (antibody, human IgG4, V domains shown)
VH: B1 VH
VL: B1 VL with C32A
notes: H4H prefix = human IgG4 Fc
A word on the IC50: it is the midpoint of a concentration-inhibition curve. Lower therefore signals inhibition by little substance. In experiment [2], B2 returned a Kd of 61.1 nM, a koff of 0.000849 s⁻¹, a kon of 13900 M⁻¹ s⁻¹ and a t1/2 of 14 min. Also, the “hGREM1-His Inhibition IC50, M; W-20-17 cell differentiation assay (alkaline phosphatase)” value in experiment [3] turned out to be 5.6 nM. Moreover, in experiment [4], the “Binding Signal with 30 sec Association” value turned out to be 0.01 nm and the “Binding Signal with 300 sec Association” value stood at 0.29 nm. Further, in experiment [1], the Kd is 15.7 nM, the koff was determined as 0.000476 s⁻¹, the kon was determined as 30400 M⁻¹ s⁻¹ and the t1/2 is 24 min. Moreover, in experiment [5], the “% blocked at maximum Ab tested (20 nM)” value is 76% and the IC50 is less than 0.025 nM. In experiment [6], the “Reduction in Signal from Heparin at 30 sec” value (shortened to “Reduction … at 30 sec”) was 0.28 nm and the “Reduction in Signal from Heparin at 300 sec” value (“Reduction … at 300 sec” for short) came to 0.18 nm. The “IC50 [M], inhibition of hGREM1-His, W-20-17/BRE-luc luciferase (100 pM hBMP4, 10 nM hGREM1-His)” value (“IC50 [M], inhibition of hGREM1-His” for short) in experiment [7] was determined as 1.3e-09 M. Besides, in experiment [8], the “Binding Signal with 30 sec Association” value came to 0.29 nm and the “Binding Signal with 300 sec Association” value is 0.47 nm.

B3: H4H2780N (antibody, human IgG4, V domains shown)
VH: EVQLVESGGGLVKPGGSLRLSCAASGFTFSTYSMNWVRQAPGKGLEWVSSISSGSSYIYYTDSVKGRFTISRDNAKNSLYLQMNSLRAEDTAVYYCARFGSYYYFGFDVWGQGTTVTVSS
VL: DIQMTQSPSSLSASVGDRVTITCRASQGISNYLAWYQQKPGKVPKLLIFSASTLQSGVPSRFSGSGSGPDFTLTVSSLQPEDVATYYCQKYNSAPFAFGPGTKVDIK
notes: H4H prefix = human IgG4 Fc
B3: in experiment [2], the Kd turned out to be 28 nM, the off-rate constant (koff) was found to be 0.00161 s⁻¹, the kon came out at 57400 M⁻¹ s⁻¹ and the t1/2 was determined as 7 min. Also, in experiment [4], the “Binding Signal with 30 sec Association” value turned out to be 0.13 nm and the “Binding Signal with 300 sec Association” value was 0.58 nm. In experiment [1], this molecule gave a Kd of 12.4 nM, a koff of 0.00088 s⁻¹, a kon of 71200 M⁻¹ s⁻¹ and a t1/2 of 13 min. In experiment [5], the “% blocked at maximum Ab tested (20 nM)” value was 69% and the IC50 is 0.1 nM. Moreover, in experiment [6], the “Reduction … at 30 sec” value is 0 nm and the “Reduction … at 300 sec” value was determined as 0 nm. In addition, in experiment [8], the “Binding Signal with 30 sec Association” value was 0.13 nm and the “Binding Signal with 300 sec Association” value amounted to 0.58 nm.

B4: H4H2784N (antibody, human IgG4, V domains shown)
VH: QVQLVESGGGVVQPGRSLRLSCAASGFTFSSYGMHWVRQAPGKGLEWVTIIWHDGSNKYYADSVKGRFTISRDNSKNTLYLQMNSVRAEDTAVYYCARDEDFFDYWGQGTLVTVSS
VL: not shown
notes: H4H prefix = human IgG4 Fc
In experiment [2], B4 displayed a Kd of 13.8 nM, an off-rate (koff) of 0.00197 s⁻¹, a kon of 142000 M⁻¹ s⁻¹ and a t1/2 of 6 min. Also, the “hGREM1-His Inhibition IC50, M; W-20-17 cell differentiation assay (alkaline phosphatase)” value in experiment [3] stood at 24 nM. Moreover, in experiment [4], the “Binding Signal with 30 sec Association” value was 0.06 nm and the “Binding Signal with 300 sec Association” value stood at 0.46 nm. Further, in experiment [1], the Kd is 17 nM, the koff stood at 0.00105 s⁻¹, the kon turned out to be 61800 M⁻¹ s⁻¹ and the t1/2 was 11 min. For the same molecule, in experiment [5], the “% blocked at maximum Ab tested (20 nM)” value was found to be 59% and the 50% inhibitory concentration (IC50) came to 0.45 nM. Further, in experiment [6], the “Reduction … at 30 sec” value turned out to be 0.18 nm and the “Reduction … at 300 sec” value amounted to 0.06 nm. Moreover, the “IC50 [M], inhibition of hGREM1-His” value in experiment [7] was 9.5e-10 M. In experiment [8], the “Binding Signal with 30 sec Association” value was 0.24 nm and the “Binding Signal with 300 sec Association” value was determined as 0.52 nm.

B5: H4H2889N (antibody, human IgG4, V domains shown)
VH: QVQLQESGPGLVKPSETLSLTCTVSGGSISNSYWSWIRQPPGKGLEWIGYIYYSGNTNYNPSLKSRVTISVDTSKNQFSLKLSSVTAADTAVYYCARVNDYSNYDSYYYGMDVWGQGTTVTVSS
VL: AIQMTQSPSSLSASVGDRVTITCRASQGIRNDLGWYQQKPGKAPKLLIYAASSLQSGVPSRFSGSGSGTDFTLTISSLQPEDFATYYCLQDYNYPPTFGQGTKVDIK
notes: H4H prefix = human IgG4 Fc
In experiment [2], B5 returned a Kd of 4.06 nM, a koff of 0.000422 s⁻¹, a kon of 104000 M⁻¹ s⁻¹ and a t1/2 of 27 min. The “hGREM1-His Inhibition IC50, M; W-20-17 cell differentiation assay (alkaline phosphatase)” value in experiment [3] came out at 5.4 nM. Besides, in experiment [4], the “Binding Signal with 30 sec Association” value worked out at 0.05 nm and the “Binding Signal with 300 sec Association” value came to 0.44 nm. In experiment [1], this molecule yielded a Kd of 1.89 nM, a koff of 0.000118 s⁻¹, a kon of 62700 M⁻¹ s⁻¹ and a t1/2 of 98 min. Moreover, in experiment [5], the “% blocked at maximum Ab tested (20 nM)” value stood at 86% and the IC50 is less than 0.025 nM. For the same molecule, in experiment [6], the “Reduction … at 30 sec” value came out at 0.15 nm and the “Reduction … at 300 sec” value came to 0.02 nm. In addition, in experiment [7], the “IC50 [M], inhibition of hGREM1-His” value amounted to 1.2e-09 M. In experiment [8], the “Binding Signal with 30 sec Association” value turned out to be 0.2 nm and the “Binding Signal with 300 sec Association” value turned out to be 0.46 nm.

B6: H4H6269P (antibody, human IgG4, V domains shown)
VH: QVQLQESGPGLVKPSQTLSLTCTVSGGSISSGGYYWTWIRQHPGKGLEWIGYIYYSGSTYYNPSLKSRVTMSVDTSKNQFSLKLSSVTAADTAVYYCARLLDFDYWGQGTLVTVSS
VL: B5 VL with T69R, T85S, Y92H, P96L, Q100G, D105E
notes: H4H prefix = human IgG4 Fc
In experiment [2], B6 displayed a Kd of 1.98 nM, a koff of 0.000254 s⁻¹, a kon of 128000 M⁻¹ s⁻¹ and a t1/2 of 46 min. Further, in experiment [4], the “Binding Signal with 30 sec Association” value worked out at 0.14 nm and the “Binding Signal with 300 sec Association” value was determined as 0.52 nm. In experiment [1], this molecule displayed a Kd of 0.625 nM, a koff of 6.32e-05 s⁻¹, a kon of 101000 M⁻¹ s⁻¹ and a t1/2 of 183 min. Further, in experiment [5], the “% blocked at maximum Ab tested (20 nM)” value is 73% and the IC50 stood at 0.026 nM. Moreover, in experiment [6], the “Reduction … at 30 sec” value is 0.01 nm and the “Reduction … at 300 sec” value was found to be 0.08 nm. For the same molecule, in experiment [8], the “Binding Signal with 30 sec Association” value was 0.15 nm and the “Binding Signal with 300 sec Association” value was determined as 0.6 nm.
